According to patent US20160272683A1 (Novo Nordisk, published 2016):
Numbered stars: 1 amine (or outer) side, 2 acyl side, 3 side chain; on linkers, the order of the positions; unused ones are H or OH. * marks the point of attachment. C20 diacid = O=C(O)CCCCCCCCCCCCCCCCCCC(=O)*; γGlu = O=C(O)[C@H](CCC(=O)[*:2])N[*:1]

T1: human calcitonin receptor (human, UniProt P30988 25-474)
T1 sequence (looked up): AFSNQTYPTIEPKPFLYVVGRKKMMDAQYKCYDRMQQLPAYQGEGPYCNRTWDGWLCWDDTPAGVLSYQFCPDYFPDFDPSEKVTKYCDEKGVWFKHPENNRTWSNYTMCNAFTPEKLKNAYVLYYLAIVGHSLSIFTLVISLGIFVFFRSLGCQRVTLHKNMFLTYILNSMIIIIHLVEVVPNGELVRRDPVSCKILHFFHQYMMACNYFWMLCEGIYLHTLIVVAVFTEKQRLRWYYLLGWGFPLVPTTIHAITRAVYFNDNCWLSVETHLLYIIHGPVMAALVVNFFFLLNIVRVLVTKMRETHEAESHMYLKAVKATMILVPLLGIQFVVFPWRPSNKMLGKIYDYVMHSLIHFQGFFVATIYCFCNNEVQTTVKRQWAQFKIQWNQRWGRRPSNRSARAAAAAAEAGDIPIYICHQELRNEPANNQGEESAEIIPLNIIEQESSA

T2: human amylin 3(a) receptor (human calcitonin receptor co-expressed with RAMP-3) (human, UniProt P30988 25-474; O60896 24-148, limits assumed)
T2 sequence (looked up) 1: T1 sequence (looked up)
T2 sequence (looked up) 2: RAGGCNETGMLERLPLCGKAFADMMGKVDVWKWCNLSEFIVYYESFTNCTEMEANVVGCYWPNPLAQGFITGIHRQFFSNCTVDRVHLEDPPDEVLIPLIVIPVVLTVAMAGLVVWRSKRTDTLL

B1: [N-terminal(C20 diacid-gGlu), des1, 30S, 31G, 33S]mimylin (peptide)
peptide: {C20 diacid-γGlu}-ASELSTAALGRLSAELHELATLPRTETGSGSS-NH2
SMILES: CC(C)C[C@H](NC(=O)[C@H](C)NC(=O)[C@H](C)NC(=O)[C@@H](NC(=O)[C@H](CO)NC(=O)[C@H](CC(C)C)NC(=O)[C@H](CCC(=O)O)NC(=O)[C@H](CO)NC(=O)[C@H](C)NC(=O)CC[C@H](NC(=O)CCCCCCCCCCCCCCCCCCC(=O)O)C(=O)O)[C@@H](C)O)C(=O)NCC(=O)N[C@@H](CCCNC(=N)N)C(=O)N[C@@H](CC(C)C)C(=O)N[C@@H](CO)C(=O)N[C@@H](C)C(=O)N[C@@H](CCC(=O)O)C(=O)N[C@@H](CC(C)C)C(=O)N[C@@H](Cc1c[nH]cn1)C(=O)N[C@@H](CCC(=O)O)C(=O)N[C@@H](CC(C)C)C(=O)N[C@@H](C)C(=O)N[C@H](C(=O)N[C@@H](CC(C)C)C(=O)N1CCC[C@H]1C(=O)N[C@@H](CCCNC(=N)N)C(=O)N[C@H](C(=O)N[C@@H](CCC(=O)O)C(=O)N[C@H](C(=O)NCC(=O)N[C@@H](CO)C(=O)NCC(=O)N[C@@H](CO)C(=O)N[C@@H](CO)C(N)=O)[C@@H](C)O)[C@@H](C)O)[C@@H](C)O
B2: [N-terminal(C20 diacid-gGlu), des1, 30S, 31G, 33Y]mimylin (peptide)
peptide: {C20 diacid-γGlu}-ASELSTAALGRLSAELHELATLPRTETGSGSY-NH2
SMILES: CC(C)C[C@H](NC(=O)[C@H](C)NC(=O)[C@H](C)NC(=O)[C@@H](NC(=O)[C@H](CO)NC(=O)[C@H](CC(C)C)NC(=O)[C@H](CCC(=O)O)NC(=O)[C@H](CO)NC(=O)[C@H](C)NC(=O)CC[C@H](NC(=O)CCCCCCCCCCCCCCCCCCC(=O)O)C(=O)O)[C@@H](C)O)C(=O)NCC(=O)N[C@@H](CCCNC(=N)N)C(=O)N[C@@H](CC(C)C)C(=O)N[C@@H](CO)C(=O)N[C@@H](C)C(=O)N[C@@H](CCC(=O)O)C(=O)N[C@@H](CC(C)C)C(=O)N[C@@H](Cc1c[nH]cn1)C(=O)N[C@@H](CCC(=O)O)C(=O)N[C@@H](CC(C)C)C(=O)N[C@@H](C)C(=O)N[C@H](C(=O)N[C@@H](CC(C)C)C(=O)N1CCC[C@H]1C(=O)N[C@@H](CCCNC(=N)N)C(=O)N[C@H](C(=O)N[C@@H](CCC(=O)O)C(=O)N[C@H](C(=O)NCC(=O)N[C@@H](CO)C(=O)NCC(=O)N[C@@H](CO)C(=O)N[C@@H](Cc1ccc(O)cc1)C(N)=O)[C@@H](C)O)[C@@H](C)O)[C@@H](C)O
B3: [N-terminal(C20 diacid-gGlu), des1, 30S, 31G, 33L]mimylin (peptide)
peptide: {C20 diacid-γGlu}-ASELSTAALGRLSAELHELATLPRTETGSGSL-NH2
SMILES: CC(C)C[C@H](NC(=O)[C@H](CO)NC(=O)CNC(=O)[C@H](CO)NC(=O)CNC(=O)[C@@H](NC(=O)[C@H](CCC(=O)O)NC(=O)[C@@H](NC(=O)[C@H](CCCNC(=N)N)NC(=O)[C@@H]1CCCN1C(=O)[C@H](CC(C)C)NC(=O)[C@@H](NC(=O)[C@H](C)NC(=O)[C@H](CC(C)C)NC(=O)[C@H](CCC(=O)O)NC(=O)[C@H](Cc1c[nH]cn1)NC(=O)[C@H](CC(C)C)NC(=O)[C@H](CCC(=O)O)NC(=O)[C@H](C)NC(=O)[C@H](CO)NC(=O)[C@H](CC(C)C)NC(=O)[C@H](CCCNC(=N)N)NC(=O)CNC(=O)[C@H](CC(C)C)NC(=O)[C@H](C)NC(=O)[C@H](C)NC(=O)[C@@H](NC(=O)[C@H](CO)NC(=O)[C@H](CC(C)C)NC(=O)[C@H](CCC(=O)O)NC(=O)[C@H](CO)NC(=O)[C@H](C)NC(=O)CC[C@H](NC(=O)CCCCCCCCCCCCCCCCCCC(=O)O)C(=O)O)[C@@H](C)O)[C@@H](C)O)[C@@H](C)O)[C@@H](C)O)C(N)=O
B4: [N-terminal(C20 diacid-gGlu), des1, 30S, 31G, 33G]mimylin (peptide)
peptide: {C20 diacid-γGlu}-ASELSTAALGRLSAELHELATLPRTETGSGSG-NH2
SMILES: CC(C)C[C@H](NC(=O)[C@H](C)NC(=O)[C@H](C)NC(=O)[C@@H](NC(=O)[C@H](CO)NC(=O)[C@H](CC(C)C)NC(=O)[C@H](CCC(=O)O)NC(=O)[C@H](CO)NC(=O)[C@H](C)NC(=O)CC[C@H](NC(=O)CCCCCCCCCCCCCCCCCCC(=O)O)C(=O)O)[C@@H](C)O)C(=O)NCC(=O)N[C@@H](CCCNC(=N)N)C(=O)N[C@@H](CC(C)C)C(=O)N[C@@H](CO)C(=O)N[C@@H](C)C(=O)N[C@@H](CCC(=O)O)C(=O)N[C@@H](CC(C)C)C(=O)N[C@@H](Cc1c[nH]cn1)C(=O)N[C@@H](CCC(=O)O)C(=O)N[C@@H](CC(C)C)C(=O)N[C@@H](C)C(=O)N[C@H](C(=O)N[C@@H](CC(C)C)C(=O)N1CCC[C@H]1C(=O)N[C@@H](CCCNC(=N)N)C(=O)N[C@H](C(=O)N[C@@H](CCC(=O)O)C(=O)N[C@H](C(=O)NCC(=O)N[C@@H](CO)C(=O)NCC(=O)N[C@@H](CO)C(=O)NCC(N)=O)[C@@H](C)O)[C@@H](C)O)[C@@H](C)O
B5: [N-terminal(C20 diacid-gGlu), des1, 30S, 31G, 33F]mimylin (peptide)
peptide: {C20 diacid-γGlu}-ASELSTAALGRLSAELHELATLPRTETGSGSF-NH2
SMILES: CC(C)C[C@H](NC(=O)[C@H](C)NC(=O)[C@H](C)NC(=O)[C@@H](NC(=O)[C@H](CO)NC(=O)[C@H](CC(C)C)NC(=O)[C@H](CCC(=O)O)NC(=O)[C@H](CO)NC(=O)[C@H](C)NC(=O)CC[C@H](NC(=O)CCCCCCCCCCCCCCCCCCC(=O)O)C(=O)O)[C@@H](C)O)C(=O)NCC(=O)N[C@@H](CCCNC(=N)N)C(=O)N[C@@H](CC(C)C)C(=O)N[C@@H](CO)C(=O)N[C@@H](C)C(=O)N[C@@H](CCC(=O)O)C(=O)N[C@@H](CC(C)C)C(=O)N[C@@H](Cc1c[nH]cn1)C(=O)N[C@@H](CCC(=O)O)C(=O)N[C@@H](CC(C)C)C(=O)N[C@@H](C)C(=O)N[C@H](C(=O)N[C@@H](CC(C)C)C(=O)N1CCC[C@H]1C(=O)N[C@@H](CCCNC(=N)N)C(=O)N[C@H](C(=O)N[C@@H](CCC(=O)O)C(=O)N[C@H](C(=O)NCC(=O)N[C@@H](CO)C(=O)NCC(=O)N[C@@H](CO)C(=O)N[C@@H](Cc1ccccc1)C(N)=O)[C@@H](C)O)[C@@H](C)O)[C@@H](C)O
B6: [N-terminal(C20 diacid-gGlu), des1, 30S, 31G, 33H]mimylin (peptide)
peptide: {C20 diacid-γGlu}-ASELSTAALGRLSAELHELATLPRTETGSGSH-NH2
SMILES: CC(C)C[C@H](NC(=O)[C@H](C)NC(=O)[C@H](C)NC(=O)[C@@H](NC(=O)[C@H](CO)NC(=O)[C@H](CC(C)C)NC(=O)[C@H](CCC(=O)O)NC(=O)[C@H](CO)NC(=O)[C@H](C)NC(=O)CC[C@H](NC(=O)CCCCCCCCCCCCCCCCCCC(=O)O)C(=O)O)[C@@H](C)O)C(=O)NCC(=O)N[C@@H](CCCNC(=N)N)C(=O)N[C@@H](CC(C)C)C(=O)N[C@@H](CO)C(=O)N[C@@H](C)C(=O)N[C@@H](CCC(=O)O)C(=O)N[C@@H](CC(C)C)C(=O)N[C@@H](Cc1c[nH]cn1)C(=O)N[C@@H](CCC(=O)O)C(=O)N[C@@H](CC(C)C)C(=O)N[C@@H](C)C(=O)N[C@H](C(=O)N[C@@H](CC(C)C)C(=O)N1CCC[C@H]1C(=O)N[C@@H](CCCNC(=N)N)C(=O)N[C@H](C(=O)N[C@@H](CCC(=O)O)C(=O)N[C@H](C(=O)NCC(=O)N[C@@H](CO)C(=O)NCC(=O)N[C@@H](CO)C(=O)N[C@@H](Cc1c[nH]cn1)C(N)=O)[C@@H](C)O)[C@@H](C)O)[C@@H](C)O

Assays:
[1] = molecular target: T1, human calcitonin receptor; assay: cell-based or functional assay
[2] = molecular target: T2, human amylin 3(a) receptor (human …); assay: cell-based or functional assay

Binder	hCTR funct. EC50 (pM) [1]	hAmylin-R funct. EC50 (pM) [2]
B1	38 pM	63 pM
B2	37 pM	46 pM
B3	31 pM	55 pM
B4	66 pM	142 pM
B5	40 pM	50 pM
B6	48 pM	53 pM
